Data as given in IntAct's records for PubMed 7538908.

B1: Tumor necrosis factor receptor superfamily member 6 (Homo sapiens), P25445 (parent)
chain: MLGIWTLLPLVLTSVARLSSKSVNAQVTDINSKGLELRKTVTTVETQNLEGLHHDGQFCHKPCPPGERKARDCTVNGDEPDCVPCQEGKEYTDKAHFSSKCRRCRLCDEGHGLEVEINCTRTQNTKCRCKPNFFCNSTVCEHCDPCTKCEHGIIKECTLTSNTKCKEEGSRSNLGWLCLLLLPIPLIVWVKRKEVQKTCRKHRKENQGSHESPTLNPETVAINLSDVDLSKYITTIAGVMTLSQVKGFVRKNGVNEAKIDEIKNDNVQDTAEQKVQLLRNWHQLHGKKEAYDTLIKDLKKANLCTLAEKIQTIILKDITSDSENSNFRNEIQSLV

Variants of: B1
Settings: with ripk1_human RIPK1, Q13546
Sequence of ripk1_human RIPK1, Q13546 (Q13546 whole entry): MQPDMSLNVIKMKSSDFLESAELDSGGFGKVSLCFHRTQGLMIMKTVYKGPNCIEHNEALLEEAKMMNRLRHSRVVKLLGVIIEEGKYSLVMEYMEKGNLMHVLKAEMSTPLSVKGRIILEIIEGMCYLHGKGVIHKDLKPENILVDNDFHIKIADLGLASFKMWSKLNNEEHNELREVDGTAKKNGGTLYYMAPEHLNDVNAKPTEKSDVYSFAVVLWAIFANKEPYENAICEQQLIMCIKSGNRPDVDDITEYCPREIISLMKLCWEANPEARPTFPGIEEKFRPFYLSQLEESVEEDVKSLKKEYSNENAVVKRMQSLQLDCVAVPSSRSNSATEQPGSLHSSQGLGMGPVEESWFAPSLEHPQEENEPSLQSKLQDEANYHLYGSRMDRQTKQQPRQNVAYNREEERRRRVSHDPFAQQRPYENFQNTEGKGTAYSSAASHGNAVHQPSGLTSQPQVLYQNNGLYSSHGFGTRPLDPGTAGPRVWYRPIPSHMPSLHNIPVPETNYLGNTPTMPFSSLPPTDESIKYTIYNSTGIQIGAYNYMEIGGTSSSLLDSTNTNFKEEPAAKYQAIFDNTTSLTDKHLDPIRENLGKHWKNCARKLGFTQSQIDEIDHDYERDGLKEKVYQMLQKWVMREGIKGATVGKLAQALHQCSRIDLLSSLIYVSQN

Variant	effect of a mutation on the interaction
MLGIWTLLPLVLTSVARLSSKSVNAQVTDINSKGLELRKTVTTVETQNLEGLHHDGQFCHKPCPPGERKARDCTVNGDEPDCVPCQEGKEYTDKAHFSSKCRRCRLCDEGHGLEVEINCTRTQNTKCRCKPNFFCNSTVCEHCDPCTKCEHGIIKECTLTSNTKCKEEGSRSNLGWLCLLLLPIPLIVWVKRKEVQKTCRKHRKENQGSHESPTLNPETVAINLSDVDLSKYITTIAGVMTLSQVKGFVRKNGNNEAKIDEIKNDNVQDTAEQKVQLLRNWHQLHGKKEAYDTLIKDLKKANLCTLAEKIQTIILKDITSDSENSNFRNEIQSLV [V254N]	decreasing interaction
